The nature of the data set: soluble on expression in E. coli; label from the status in PepcDB or PDB records.
As for “MSTTDKQVAIVGVGPRGISILERIAAALNTVSRPKQGLTIHLIEDAQMGAGNVWRTDQTRTLCMNTLAGAVTLFTEPGSTVSAPVVEGPLQFDWIRLLRGDEDLSGIPTKAIELFRTYPPAASVAEDFKEELAATVIQSNPSRALYGAYLRWAFDVALQLLPQWVKVEQHHARAIGIREDGDRDVITLDNSEMISADSTVLAVGWQTPAPNAEELSIAAALEENPDLVWVKPGNPVEQDASLIPAGEQVLVRGLGMGFFDIMALTTIDRGGIFHEDPSTRSGLRYEASGEEPHFVISSGRGYPYLPKSDYKSLPPGAKLARLKAVIAAINAQNRGVASINYDAEVWPAVARDAYEAYYETLDRVSPESIRTGLDKIVEIIDEVDVDKLPKALAAHTDDVFDLHAWEFPLAGINESVEALTARIADGMARDIRHAVTAWDSPLKSALWSISAARKPSSILGAEGRLTFESRRNRFAAVMAIGQMVGSGPPLFRTRELLALVDAGLAHFAGARPRLSVSDGQWQISSPTTGDTPLRSKVLVDAWMHNP”, the “soluble on expression in E. coli” value was “not soluble”.
Under “MSSPRSNKPKIVNGPGGYILQDVPHLIDYLPDLPTYPNPLQDNPAYSVVKQYFVHADDSVPEKVVVHKDGPRGVHFRRAGPRQKVYFESDEVHACIVTCGGLCPGLNTVIREVVSSLSYMYGVKRILGIDGGYRGFYAKNTIPLNSKVVNDIHKRGGTIIGTSRGGHDTNKIVDSIQDRGINQVYIIGGDGTQRGASVIFEEIRRRRLKVAVVGIPKTIDNDIPVIDKSFGFDTAVEEAQRAINAAHVEAESNENGIGFVKLMGRYSGYIAMYATLASRDVDCCLIPESPFYLEGEGGLFEFIERRLKDHGHMVIVLAEGAGQDLMCKSMESTPMDASGNKLLKDVGLWLSQSIKDHFKKNKMVMNLKYIDPTYMIRAVPSNASDNVYCTLLAQSAVHGAMAGYTGYTSGLVNGRQTYIPFYRITETQNNVVITDRMWARLLSSTNQPSFLGPKDTSEEKKELPETPLLDDGAVDIPPVTKEVTK” stands “soluble”; under “MSAYRHAVERIDSSDLACGVVLHSAPGYPAFPVRLATEIFQRALARLPGDGPVTLWDPCCGSGYLLTVLGLLHRRSLRQVIASDVDPAPLELAAKNLALLSPAGLTARELERREQSERFGKPSYLEAAQAARRLRERLTAEGGALPCAIRTADVFDPRALSAVLAGSAPDVVLTDLPYGERTHWEGQVPAQPVAGLLRSLASALPAHAVIAVTDRSRKIPVAPVKALERLKIGTRSAVLVRAADVLEAGP”, “soluble”.
Then “MANFEDFLTLDLRIGTVTHAEEFKEARVPAIKLEIDFGELGMKQSSAQITKRYNPEDLIGQQIVAVVNFPPKRVAGFKSEVLVLGGVPEAGDVVLLQPNMELPNGTKIS”, with “not soluble”.
Under “MSLNQSYFNLLGNITWLWMNSSLHKEWSCELLARNVIPAIENEQYMLLIDNGIPIAYCSWADLNLETEVKYIKDINSLTPEEWQSGDRRWIIDWVAPFGHSQLLYKKMCQKYPDMIVRSIRFYPKQKELGKIAYFKGGKLDKKTAKKRFDTYQEELATALKNEFNFIKKEGHHHHHH” stands “soluble”; under “GAMGMESLFPNKGEIIRELLKDPLILKNDSKRSNGSELELDSSDLLQREAILANELNILDNLKTFLNLIKEVKTNLNILELENCYYSLQSLRKKMRNNAAYLKQSFNFQQSISTYVDTLHLELVSTLYKILTNGFWKITENSIQFTPTVEWGKDKVHIEYDTFMDFVAQQYFPKGSLDNQAWFILDMTSADSQEQVRAKLNTIMKEYMNLSRIVSMIKNSIFISGKEISYENEKNILVFSKSSSHGQHCVSTVLTSFEAVCDFMLDGLAFRDRKTLSYELGPLFNTEFTKFVKNNASIILESLDSPLKNLVSVINNKLTRLVAKSEVTNWTHSGKEIQDLLMNKQLYYNLLLDKVLESHISEIRS”, “soluble”.
With “MKKPIHSHRAATLYHFAFCLHNLRRSPNSPFTVRNRDEQKDEKPYENKGKINKFFLDLTYFQLPYPVSERAPLRLRAKIETREKINFKIRASSSPAVLVNFPFPRHSLLVSLSPAHETNNAVDGEALHPRAQRA”, the “soluble on expression in E. coli” value is given as “not soluble”.
Under “MVAVIIKGNEVAEKKRAQLKEEVVKLKEQGIVPGLAVILVGEDPASRSYVKGKEKGCEQVGIYSELIEFPETITEERLLAEIDRLNGDDRINGILVQLPLPKHIEEKAIIERISPEKDVDGFHPISVGRMMTGQDTFLPCTPHGIVELVKETNLDISGKHVVVIGRSNIVGKPVGQLFLNENATVTYCHSKTQNMKELTKLADILIVAVGRPKMVTADYIKEGAVVIDVGVNRLETGKLCGDVDFDNVLDVASYITPVPKGVGPMTITMLLHNTVESAKRAGVVCK” stands “not soluble”.
In the case of “MRIEGELVKAKFVKRLNRFVALVEVDGVQEFAHVPNTGRLKELLVDGAAVMVRKYDKTDRKTRFGLILVRKNGIWVSIDSANAPNRIMYEALVQGKFDKFRDYSEIRREVTVLNSRFDFGLFSEGKEYYIEVKGVTLVENRQGFFPDAPTQRGTRHLEELTKIRQNGKEAGVAFIVQREDADVVRPNDRTDKNFANALRIAAEAGVDLMAYVCKVDAEQRRMDIVREIPVIIK”, the “soluble on expression in E. coli” value was “soluble”.
Then “MQERVFHVASPKAKLYSEADQAIRERLKDFPKALRAYEMLVQDPEARSGWNMANYLTMRKLGYNDHGRVHALLTGAASVAILALLSEAGVRLDTVESGAGELEDAYVVVLLSTMLHDLGNQVHRFGHEAFGVVLALPILNRILDKLYPDPEQRTAIRALILHGIYSHDLSPEPLTIEAGITAVADGTDITKGRGRKAFQLGSIDIHSISALAVDEVRILKGEKVPVEIQVTMNNSAGIFQVEETLTKKVLKSPLRPYVTVVAMTDGEGGQDQRIVHRVRLHETEDRFVLD”, with “soluble”; and “MEKQNLPVVVVGAGPVGLAAAAHLVERGIEPLVLEAGASAATAVRDWAHVRLFSPWAEVTDPAAEKLLAPTGWLRPDGATYPTGGDWAERYLQPLADVLGDQVRYGATVTGVARAGRDRIVDSGREEQPFTVHIETADGGEERIAARAVIDAGRRGVRHADRLEHHHHHH”, with “soluble”; and “MDIYERQVRVEAPLAEVWKFHATGDGLVALTPDWMNIRIEAERGPDGEPNPDELTAGSVVESSIKPFGVPPRQQWVSNIVAREEGEDEAMFRDVMEEGPFPHWEHTHTFRALSDRETLVHDHVEFELPGGPLGRALGPFGCLGMEPMFRYRHQQTKKLLEGLEHHHHHH”, with “not soluble”.
Then “MGSDKIHHHHHHMKKLTVYLATTNPHKVEEIKMIAPEWMEILPSPEKIEVVEDGETFLENSVKKAVVYGKKLKHPVMADDSGLVIYSLGGFPGVMSARFMEEHSYKEKMRTILKMLEGKDRRAAFVCSATFFDPVENTLISVEDRVEGRIANEIRGTGGFGYDPFFIPDGYDKTFGEIPHLKEKISHRSKAFRKLFSVLEKILESENR”, with “soluble”; and “MSLQKITVPTWAEINLDNLRFNLNNIKNLLEEDIKICGVIKADAYGHGAVEVAKLLEKEKVDYLAVARTAEGIELRQNGITLPILNLGYTPDEAFEDSIKNKITMTVYSLETAQKINEIAKSLGEKACVHVKIDSGMTRIGFQPNEESVQEIIELNKLEYIDLEGMFTHFATADEVSKEYTYKQANNYKFMSDKLDEAGVKIAIKHVSNSAAIMDCPDLRLNMVRAGIILYGHYPSDDVFKDRLELRPAMKLKSKIGHIKQVEPGVGISYGLKYTTTGKETIATVPIGYADGFTRIQKNPKVLIKGEVFDVVGRICMDQIMVRIDKDIDIKVGDEVILFGEGEVTAERIAKDLGTINYEVLCMISRRVDRVYMENNELVQINSYLLKEGHHHHHH”, with “soluble”; and “MEMYFKRMKDEWTGLVEQADPPIRAKAAEIAVAHAHYLSIEFYRIVRIDPHAEEFLSNEQVERQLKSAMERWIINVLSAQVDDVERLIQIQHTVAEVHARIGIPVEIVEMGFRVLKKILYPVIFSSDYSAAEKLQVYHFSINSIDIAMEVMTRAFTFSDSLEHHHHHH”, with “not soluble”.
Then “MSDVRPPLPPFTAETAAQKVRAAEDGWNSRDPQRVSLAYSPDSVWRNRSTFVRGRERIVEFLSGKWQREQEYRLIKELWAFTGNRIAVRFAYEWHDDSGNWFRSYGNENWAFDEQGLMYERHASINDLPIREDQRLFRWLLGRRPDNHPSLGELGLLEHHHHHH”, with “soluble”; and “MRLSISLGESPCISSLKVRGFTASPQTPNLSISVIVTAFNRREYLRYALLSLKNQEADSFEVVVSKNFSDRVTDKFCSENGFINVTTDSSRSGERVYDALRSSHGDFILFLDDDDIFRRTKISRVSDVISKRNVAFYRNAIFPVTVDGVIATHYQPQMHDPLYLILERVSDVRLLHRHACDFNSSSMGISRSMLDSHASDLRKINLAVDTFYFALAASSRMPLFCDSMIESIYRIMPSSTSRDLRDFYLFSRFERSFLRRYVPDLERIAEIVEGSPAKPVIGRMLSLYKILQYVFEEDRVNLKPSPLDRVRFLLERPFPYSLLYSRIFRDAAMRSEFRRENRIVYGNADRRRRLEHHHHHH”, with “soluble”.
As for “MGSDKIHHHHHHMARIPRFALVERDSSNHCTWRAHDFEHVLEEAGATDKFLELLGRYKEKYGVEINSYCLMGTHPHVTCTTRRDQEQFSRFWQVVNGQFARWYNKRRERRGQVVMERMRSPRIQAEGAHQLTVMRYGDLNPVRAGLVKSPKDWKWSSYRHYAFGEPDPLIDDAPEYLALGKTGPQRRKAYQALFALPLSESLRTRRIDLVEYPFVGDAHWVMHRLDVAGLSPPD”, the “soluble on expression in E. coli” value is “not soluble”.
As for “MKVEQIYTGCLAQGAYYITSMGEAAIIDPLREITPYLERLKRDGVKLKYILETHFHADFVSGHLDLSRATGAPIVYGPTAKPGFDAIVAEDNQIFELGNVKIRVLHTPGHTMESSCFLLIDENGREAALFSGDTLFLGDVGRPDLAQKAANLTQEELAGLLYDSLYTKILPLSDDIIVYPAHGAGSACGKNMMQETVDSLGNQKRVNYALNQPGKEAFIASVIEGLLPPPAYFGGNVAMNKMGYDSIDNVMERGLSALSATDFEAIAKTSDALVLDTRAPGVFAQGFIPRSINIGLDGDFAPWVGTMIVDVKQPLLLVADPGREQEVITRLSRVGFDQVLGYLDGGFDTWNASGKEIDHVECITANEFAERFCPEESLVFDVRKESEYAAEHVEGAYSRPLAYINDWIQDIPRDRHFYLHCIGGYRSMIASSILLSRGYRNFTDIEGGFASIAQTGVPKTDYVCQSKVSKKLEHHHHHH”, the “soluble on expression in E. coli” value is recorded as “soluble”.
Then “MKVRVKAPCTSANLGVGFDVFGLCLKEPYDVIEVEAIDDKEIIIEVDDKNIPTDPDKNVAGIVAKKMIDDFNIGKGVKITIKKGVKAGSGLGSSAASSAGTAYAINELFKLNLDKLKLVDYASYGELASSGAKHADNVAPAIFGGFTMVTNYEPLEVLHIPIDFKLDILIAIPNISINTKEAREILPKAVGLKDLVNNVGKACGMVYALYNKDKSLFGRYMMSDKVIEPVRGKLIPNYFKIKEEVKDKVYGITISGSGPSIIAFPKEEFIDEVENILRDYYENTIRTEVGKGVEVV”, with “soluble”; and “MSLQGRRRKSLVFFPFFKINDKGASAMEEMVVVTPEKLEKLMKQKLEAAGLHSEHAEEVARHLTFADASGIHSHGAVRMDYYAERIAKGGITIDPELSFEKTGPSTAIFHGDNGVGQFVCNEALAAAVDLAKESGVAYVGVSQTSHSGTLSYYVKKAAEQGMVALSMCQSDPMVVPFGGTSNYFGTNPIAFAAPRAGHEPVVFDMATTVQAWGKILDARSRDVEIPDTWAVDEKGQPTTDPYEVRGLLPISGPKGYGLMMMVDVLAGSLLGLPFGKHVSSMYADLTEKRNLGQMFLVIDPSRFTDSERFKENINQMVEELHCVPTAEGFQQVYYPGEIGQLNYQKAMSEGIEIPQSIYDYLVSEIVHYDKYGGQGAFAKEGGSHHHHHH”, with “soluble”.

The values are drawn from the DeepSol protein solubility set.
